The values that follow come from patent US20240279281A1, “Peptide Inhibitors of Interleukin-23 Receptor” (Janssen Pharmaceutica NV, priority 2023, published 2024).

Starred links: 1 amine or outer side, 2 acyl side, 3 side chain; linkers in the order of their positions; H or OH if unused. Positions of bridges follow the written chain, without caps; N, C: chain ends. Non-standard residues stand in square brackets, D forms with d. No end group written: not given here. X1 = 3‑(7-(3-acetamidophenyl)-1H-indol-3-yl)‑2‑aminopropanoic acid, CC(=O)Nc1cccc(-c2cccc3c(CC(N[*:1])C(=O)[*:2])c[nH]c23)c1; AEF(G) = 2-amino-3-(4-(2-guanidinoethoxy)phenyl)propanoic acid, N=C(N)NCCOc1ccc(C[C@H](N[*:1])C(=O)[*:2])cc1; X10 = 2‑amino‑3‑(4-(2-guanidinoethoxy)phenyl)propanoic acid, N=C(N)NCCOc1ccc(CC(N[*:1])C(=O)[*:2])cc1; Trp(7-(3-AcNH-Ph)) = CC(=O)Nc1cccc(-c2cccc3c(C[C@H](N)C(=O)O)c[nH]c23)c1; N‑methyl‑N‑acetyllysine = N-methyl-N-acetyllysine; Phe(4-OMe) = COc1ccc(C[C@H](N[*:1])C(=O)[*:2])cc1; Trp(7-Br) = N[C@@H](Cc1c[nH]c2c(Br)cccc12)C(=O)O; 2Nal(6-OH) = N[C@@H](Cc1ccc2cc(O)ccc2c1)C(=O)O; Trp(7-Me) = Cc1cccc2c(C[C@H](N)C(=O)O)c[nH]c12; dLys(Me3) = C[N+](C)(C)CCCC[C@@H](N)C(=O)O; AEF = NCCOc1ccc(C[C@H](N)C(=O)O)cc1; 3Pal = N[C@@H](Cc1cccnc1)C(=O)O; NMeK = CN[C@@H](CCCCN)C(=O)O; Pen = CC(C)(S)[C@H](N)C(=O)O; αMeK = C[C@](N)(CCCCN)C(=O)O; αMeC = C[C@](N)(CS)C(=O)O; lipid = not defined here; Thp = NC1(C(=O)O)CCOCC1; PEG = not defined here; Sar = CNCC(=O)O

B1: SEQ ID NO: 305 (peptide)
peptide: [Pen]NT[Trp(7-Me)]K(lipid)[Pen]F[2Nal(6-OH)][αMeK]LN[3Pal][Sar]
modifications: not fully specified (bridges); ends and bridges not checked; also: lipid group unspecified
B2: SEQ ID NO: 303 (peptide)
peptide: [Pen]LT[Trp(7-Me)]K(lipid)[Pen]F[2Nal(6-OH)][αMeK]LN[3Pal][Sar]
modifications: disulfide 1-6 (inferred); ends not checked; also: Lys5 lipidated, lipid not given here
B3: SEQ ID NO: 222 (peptide)
peptide: R[Pen]NT[Trp(7-Me)]K(Ac)[Pen][2‑amino‑3‑(4-(2-aminoethoxy)phenyl)propanoic acid][2‑amino‑3‑(6-hydroxynaphthalen-2-yl)propanoic acid][Thp]K(Ac)N[3Pal][Sar]K(lipid)
modifications: disulfide 2-7 (inferred); ends not checked; also: Lys15 lipidated, lipid not given here
B4: SEQ ID NO: 326 (peptide)
peptide: [Pen]ET[Trp(7-Me)]K(PEG)[Pen][AEF][2Nal(6-OH)][Thp]EN[3Pal][Sar]
modifications: not fully specified (bridges); ends and bridges not checked; also: PEG chain on Lys unspecified
B5: SEQ ID NO: 307 (peptide)
peptide: [Pen]NT[Trp(7-Me)]K(lipid)[Pen][Phe(4-OMe)][2Nal(6-OH)][αMeK]LN[3Pal][Sar]
modifications: not fully specified (bridges); ends and bridges not checked; also: lipid group unspecified

The target in this assay is T1, interleukin-23 receptor (IL-23R), Q5VWK5.
T1 chain: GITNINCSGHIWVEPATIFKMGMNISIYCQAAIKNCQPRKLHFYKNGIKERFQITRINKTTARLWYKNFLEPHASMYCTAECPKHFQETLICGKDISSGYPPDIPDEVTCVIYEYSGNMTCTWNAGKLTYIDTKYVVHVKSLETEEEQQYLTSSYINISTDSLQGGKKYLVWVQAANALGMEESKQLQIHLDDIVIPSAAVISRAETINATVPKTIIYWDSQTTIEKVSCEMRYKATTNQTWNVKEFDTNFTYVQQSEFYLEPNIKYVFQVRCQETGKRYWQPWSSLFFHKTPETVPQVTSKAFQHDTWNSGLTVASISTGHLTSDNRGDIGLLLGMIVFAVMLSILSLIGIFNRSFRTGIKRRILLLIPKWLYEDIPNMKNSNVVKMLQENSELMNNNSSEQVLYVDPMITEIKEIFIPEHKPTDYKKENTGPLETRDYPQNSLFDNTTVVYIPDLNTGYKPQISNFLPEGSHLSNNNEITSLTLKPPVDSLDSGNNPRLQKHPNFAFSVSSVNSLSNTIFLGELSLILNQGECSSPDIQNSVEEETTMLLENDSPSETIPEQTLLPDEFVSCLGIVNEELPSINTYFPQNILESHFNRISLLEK
The experiment in a line: cell-based or functional assay.
As for [Pen]K(lipid)T[Trp(7-Me)]K(Ac)[Pen][2‑amino‑3‑(4-(2-aminoethoxy)phenyl)propanoic acid][2‑amino‑3‑(6-hydroxynaphthalen-2-yl)propanoic acid][Thp]EN[3Pal][Sar] (disulfide 1-6 (inferred); ends not checked; also: K2: lipidated lysine) [SEQ ID NO: 276], the IL23R Reporter Assay IC50 was more than 0.1 µM and the PBMC pSTAT3 IC50 is less than 1 nM.

Molecule [Pen]NT[Trp(7-Me)]K(Ac)[Pen][2‑amino‑3‑(4-(2-aminoethoxy)phenyl)propanoic acid][2‑amino‑3‑(6-hydroxynaphthalen-2-yl)propanoic acid][Thp]K(Ac)N[3Pal][Sar]K(lipid) (disulfide 1-6 (inferred); ends not checked; also: K14: lipidated lysine) [SEQ ID NO: 275] came in with an IL23R Reporter Assay IC50 of more than 0.1 µM and a PBMC pSTAT3 IC50 of less than 1 nM.

[N‑amino‑O‑(2-(2-(methylamino)ethoxy)ethyl)‑D‑serine][Pen]NT[Trp(7-Me)][N‑methyl‑N‑acetyllysine][Pen][AEF][2Nal(6-OH)][Thp]DN[3Pal][Sar] (disulfide 2-7 (inferred); ends not checked) [SEQ ID NO: 290] had an IL23R Reporter Assay IC50 of less than 0.01 µM and a PBMC pSTAT3 IC50 of less than 0.1 nM.

For R[Pen]NT[Trp(7-Me)]K(Ac)[Pen][2‑amino‑3‑(4-(2-aminoethoxy)phenyl)propanoic acid][2‑amino‑3‑(6-hydroxynaphthalen-2-yl)propanoic acid][Thp]K(Ac)N[3Pal][Sar] (disulfide 2-7 (inferred); ends not checked) [SEQ ID NO: 219], the IL23R Reporter Assay IC50 was less than 0.01 µM and the PBMC pSTAT3 IC50 is less than 0.1 nM.

Regarding [Pen]NT[Trp(7-Me)]K(Ac)[Pen][Phe(4-OMe)][2Nal(6-OH)][αMeK]LN[3Pal][Sar] (not fully specified (bridges); ends and bridges not checked) [SEQ ID NO: 308], the IL23R Reporter Assay IC50 was less than 0.01 µM.

In the case of [Pen]LT[Trp(7-Me)]K(Ac)[Pen]F[2Nal(6-OH)][αMeK]LN[3Pal][Sar] (disulfide 1-6 (inferred); ends not checked) [SEQ ID NO: 304], the IL23R Reporter Assay IC50 was less than 0.01 µM.

As for R[Pen]NT[X1]K(Ac)[Pen][X10][2‑amino‑3‑(6-hydroxynaphthalen-2-yl)propanoic acid][Thp]EN[3Pal][Sar] (ends and bridges not checked) [SEQ ID NO: 35], the IL23R Reporter Assay IC50 was less than 0.01 µM and the PBMC pSTAT3 IC50 was less than 0.1 nM.

Take [dLys(Me3)][Pen]NT[Trp(7-(3-AcNH-Ph))]K(Ac)[Pen][AEF(G)][2Nal(6-OH)][Thp]EN[3Pal][Sar] (ends and bridges not checked) [SEQ ID NO: 33]: the IL23R Reporter Assay IC50 was less than 0.01 µM and the PBMC pSTAT3 IC50 was less than 10 pM.

With RCNT[Trp(7-Me)]K(Ac)[αMeC][AEF][2Nal(6-OH)][Thp]EN[3Pal][Sar] (ends and bridges not checked) [SEQ ID NO: 4], the IL23R Reporter Assay IC50 is less than 0.01 µM.

For [Pen]ET[Trp(7-Me)]K(Ac)[Pen][AEF][2Nal(6-OH)][Thp]EN[3Pal][Sar] (not fully specified (bridges); ends and bridges not checked) [SEQ ID NO: 331], the IL23R Reporter Assay IC50 is less than 0.01 µM.

B1 yielded an IL23R Reporter Assay IC50 of less than 0.01 µM.

[dLys(Me3)][Pen]NT[X1]K(Ac)[Pen][5‑(4-(2-amino-2-carboxyethyl)phenoxy)‑N,N,N‑trimethylpentan‑1‑aminium][2‑amino‑3‑(6-hydroxynaphthalen-2-yl)propanoic acid][Thp]EN[3Pal][Sar] (ends and bridges not checked) [SEQ ID NO: 37] came in with an IL23R Reporter Assay IC50 of less than 0.01 µM.

Turning to R[Pen]NT[Trp(7-Br)]K(Ac)[Pen][AEF][2Nal(6-OH)][Thp]EN[3Pal][Sar] (not fully specified (bridges); ends and bridges not checked) [SEQ ID NO: 312], the IL23R Reporter Assay IC50 is less than 0.01 µM.

B2 gave an IL23R Reporter Assay IC50 of less than 0.01 µM.

[Pen]NT[Trp(7-Me)]K(Ac)[Pen][Phe(4-OMe)][2Nal(6-OH)][αMeK]LN[3Pal][Sar] (not fully specified (bridges); ends and bridges not checked) [SEQ ID NO: 306] returned an IL23R Reporter Assay IC50 of less than 0.01 µM.

Take B3: the IL23R Reporter Assay IC50 is more than 0.1 µM and the PBMC pSTAT3 IC50 is more than 1 nM.

Molecule [Pen]NT[Trp(7-Me)]K(Ac)[Pen][AEF][2Nal(6-OH)][Thp]EN[3Pal][Sar] (ends and bridges not checked) [SEQ ID NO: 3] displayed an IL23R Reporter Assay IC50 of less than 0.01 µM.

In the case of B4, the IL23R Reporter Assay IC50 is less than 0.01 µM.

Turning to R[Pen]NT[Trp(7-Me)]K(Ac)[Pen][AEF][2Nal(6-OH)][Thp]EN[3Pal][NMeK](lipid) (disulfide 2-7 (inferred); not fully specified; ends not checked) [SEQ ID NO: 279], the IL23R Reporter Assay IC50 was more than 0.1 µM and the PBMC pSTAT3 IC50 was less than 1 nM.

[Pen]NT[Trp(7-Br)]K(Ac)[Pen][AEF][2Nal(6-OH)][Thp]EN[3Pal][Sar] (not fully specified (bridges); ends and bridges not checked) [SEQ ID NO: 313] yielded an IL23R Reporter Assay IC50 of less than 0.01 µM.

With B5, the IL23R Reporter Assay IC50 is less than 0.01 µM.

Consider R[Pen]NT[X1]K(Ac)[Pen][5‑(4-(2-amino-2-carboxyethyl)phenoxy)‑N,N,N‑trimethylpentan‑1‑aminium][2‑amino‑3‑(6-hydroxynaphthalen-2-yl)propanoic acid][Thp]EN[3Pal][Sar] (not fully specified (bridges); ends and bridges not checked) [SEQ ID NO: 39], for which the IL23R Reporter Assay IC50 is less than 0.01 µM.

[Pen]NT[Trp(7-Me)]K(Ac)[Pen][2‑amino‑3‑(4-(2-aminoethoxy)phenyl)propanoic acid][2‑amino‑3‑(6-hydroxynaphthalen-2-yl)propanoic acid][Thp]K(Ac)N[3Pal][Sar]K(lipid) (disulfide 1-6 (inferred); ends not checked; also: K14: lipidated lysine) [SEQ ID NO: 278]: the IL23R Reporter Assay IC50 was more than 0.1 µM and the PBMC pSTAT3 IC50 was less than 1 nM.

As to R[Pen]NT[Trp(7-Me)]K(Ac)[Pen][AEF(G)][2Nal(6-OH)][Thp]EN[3Pal][Sar] (ends and bridges not checked) [SEQ ID NO: 32], the IL23R Reporter Assay IC50 was less than 0.01 µM and the PBMC pSTAT3 IC50 is less than 10 pM.
